# Assay results reported in patent publication US20240174744A1 (SCIRHOM, published 2024).
# Numbering of substitutions follows the chain as printed.
# B1: antibody 50 (antibody, V domains shown)
# VH: QVQLQQSGAELVRPGASVKVSCKASGYAFSNYLIEWVKQRPGQGLEWIGVINPGSGFTKYNEKFKGKATLTADKSSSTAYMQLSSLTSEDSAVYFCARGLYRAMDYWGQGTSVTVSS
# VL: DIQMTQSPASQSASLGESVTITCLASQTIGTWLAWYQQKPGKSPQLLIYAAASLADGVPSRFSGGGSGTKFSFKISSLQAEDFVNYYCQQIYSTPYTFGGGTKLEIK
# notes: Mouse IgG, kappa light chain; also called clone #50; purified antibody 50
# B2: antibody 16 (antibody, V domains shown)
# VH: QVTLKESGPGILQPSQTLSLTCSFSGFSLSTFALGVGWIRQPSGRGLEWLAHIWWDDDKYYNPALKSRLTISKDTSKNHVFLKIANVDTADTATYYCARITTYYYGMDYWGQGTSVTVSS
# VL: DIVLSQSPATLSVTPGDSVSLFCRASQSIGNHLHWYQQESHASPRLLIKYASQSISGIPSRFSGSGSGTDFTLSINSVETEDFGMYFCQQSYNWPLTFGAGTKLELK
# notes: Mouse IgG, kappa light chain; also called clone #16; m16
# B3: antibody 43 (antibody, V domains shown)
# VH: QVALKESGPGILQPSQTLSLTCSFSGFSLSTFGMGVGWIRQSSGKGLEWLANIWWDDDKYYNPALKSRLTISKDASKNQAFLKIANVDTADTATYYCARIGNYGSNYWYFDVWGTGTTVTVSS
# VL: QIVLTQSPAIMSASPGERVTMTCSANSRISYMYWYQQKPGSSPRLLIYDTSNLASGVPVRFSGSGSGTSYSLTISRMEAEDAATYNCQQWSSYPLTFGAGTKLELK
# notes: Mouse IgG, kappa light chain; also called clone #43
# B4: antibody 42 (antibody, V domains shown)
# VH: B3 VH with A3T, F24L, M34R, S42P, N52H, D58E, A75T, A80V, K83R, G101Q
# VL: B3 VL with Q1L, R18K, S24G, N26T, Y33F, L45V, M77V, A82V, N86Y, S91N
# notes: Mouse IgG, kappa light chain; also called clone #42; m42
# B5: antibody 5 (antibody, V domains shown)
# VH: B3 VH with A3T, S42P, N52H, D58E, P63S, D74A, A75T, G101S, D111N
# VL: QVVLTQSPALMSASPGEKVTMTCSAGSSVSCMYWYQQKPGSSPRVLIYDTSNLASGVPARFTGSGSGTSYSLTISRMEAEDAASYYCQQWNSYPLTFGAGTKLELK
# notes: Mouse IgG, kappa light chain; also called clone #5; purified antibody 5
# B6: antibody 44 (antibody, V domains shown)
# VH: B3 VH with A3T, S42P, G44E, N52H, A75T, A80I, A85T, D91E, A98S
# VL: QIVLTQSPAVMSASPGEKVTMTCTASSSVYYMYWYQQTPGSSPRLLIYDTSNLASGVPVRFSGSGSGTSYSLTISRMEAEDAATYYCQQWNTYPLTFGAGTKLELK
# notes: Mouse IgG, kappa light chain; also called clone #44; m44
# B7: antibody 22 (antibody, V domains shown)
# VH: B3 VH with A3T, S42P, N52H, D58E, P63S, D74A, A75T, A80V, G101S, D111N
# VL: B5 VL with C31Y, S84T
# notes: Mouse IgG, kappa light chain; also called clone #22; m22
# B8: antibody 34 (antibody, V domains shown)
# VH: QVTLKESGPGILQPSQTLSLTCSFSGFSLSTFSLGVGWIRQSSGKGLEWLAHIWWDDEKYYNPALKSRLTISKDTSKNQVFLKIANVDAADTATYYCARAYYSKSYYALDYWGQGTSVTVSS
# VL: DIQMTQSPSSLSASLGERVSLTCRASQEISGYLSWLQQKPDGTIKRLIYAASTLDSGVPKRFSGSRSGSDYSLAISSLESEDFADYYCLQYANFPFTFGSGTKLEIK
# notes: Mouse IgG, kappa light chain; also called clone #34; m34
# B9: antibody 3 (antibody, V domains shown)
# VH: QVTLKESGPGILQPSQTLSLTCSFSGFSLTTFAMGIGWVRQPSGKGLEWLAHIWWDGEKYNNPVLKSRLTISKDTSKNQVFLRIANVDTPDTATYYCARISSIYYIIDNWGQGTSVTVSS
# VL: B2 VL with S5T, D17H, F22S, G30S, H32N, Q38K, E39K, A42E, A51V
# notes: Mouse IgG, kappa light chain; also called clone #3; purified antibody 3
# Target: T1, miR2-FL-WT-T7 (mouse iRhom2 full length wild type C-terminally tagged with 3 consecutive copies of the T7 … (mouse, UniProt Q80WQ6 1-827))
# T1 construct: also called mouse iRhom2 variant expressed by MEF-DKO-miR2-FL-WT-T7 cells
# T1 sequence: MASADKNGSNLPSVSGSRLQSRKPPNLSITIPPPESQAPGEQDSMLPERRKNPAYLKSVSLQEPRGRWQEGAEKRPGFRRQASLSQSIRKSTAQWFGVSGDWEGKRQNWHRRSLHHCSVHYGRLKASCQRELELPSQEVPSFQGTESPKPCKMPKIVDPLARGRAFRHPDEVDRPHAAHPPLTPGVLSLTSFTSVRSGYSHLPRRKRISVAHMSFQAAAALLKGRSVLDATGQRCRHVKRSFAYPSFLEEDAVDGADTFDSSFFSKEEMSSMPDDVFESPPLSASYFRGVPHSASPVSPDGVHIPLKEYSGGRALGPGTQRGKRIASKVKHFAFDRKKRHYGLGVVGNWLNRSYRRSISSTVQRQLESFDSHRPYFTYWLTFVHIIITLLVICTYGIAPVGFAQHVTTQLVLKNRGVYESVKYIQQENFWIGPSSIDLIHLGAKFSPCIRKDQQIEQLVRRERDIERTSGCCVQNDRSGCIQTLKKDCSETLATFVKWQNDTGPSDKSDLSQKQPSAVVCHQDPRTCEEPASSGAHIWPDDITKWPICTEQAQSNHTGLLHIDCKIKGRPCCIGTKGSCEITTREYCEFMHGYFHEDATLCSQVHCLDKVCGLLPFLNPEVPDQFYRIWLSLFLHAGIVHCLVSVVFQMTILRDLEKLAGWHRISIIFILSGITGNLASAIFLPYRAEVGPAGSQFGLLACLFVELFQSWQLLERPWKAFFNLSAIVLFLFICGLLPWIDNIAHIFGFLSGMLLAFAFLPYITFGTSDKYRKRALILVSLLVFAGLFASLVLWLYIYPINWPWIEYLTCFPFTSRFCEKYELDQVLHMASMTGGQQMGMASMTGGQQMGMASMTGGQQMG
# Assay: FACS on cells of the row mouse iR2 wild type
row,Binder,binding result
1,B1,no binding (tested: 3 µg/ml)
2,B2,no binding (tested: 3 µg/ml)
3,B3,no binding (tested: 3 µg/ml)
4,B4,no binding (tested: 3 µg/ml)
5,B5,no binding (tested: 3 µg/ml)
6,B6,no binding (tested: 3 µg/ml)
7,B7,no binding (tested: 3 µg/ml)
8,B8,no binding (tested: 3 µg/ml)

# Target: T2, hiR1-FL-WT-T7 (human iRhom1 full length wild type C-terminally tagged with 3 consecutive copies of the T7 … (human, UniProt Q96CC6 1-855))
# T2 construct: also called human iRhom1 variant expressed by MEF-DKO-hiR1-FL-WT-T7 cells
# T2 sequence: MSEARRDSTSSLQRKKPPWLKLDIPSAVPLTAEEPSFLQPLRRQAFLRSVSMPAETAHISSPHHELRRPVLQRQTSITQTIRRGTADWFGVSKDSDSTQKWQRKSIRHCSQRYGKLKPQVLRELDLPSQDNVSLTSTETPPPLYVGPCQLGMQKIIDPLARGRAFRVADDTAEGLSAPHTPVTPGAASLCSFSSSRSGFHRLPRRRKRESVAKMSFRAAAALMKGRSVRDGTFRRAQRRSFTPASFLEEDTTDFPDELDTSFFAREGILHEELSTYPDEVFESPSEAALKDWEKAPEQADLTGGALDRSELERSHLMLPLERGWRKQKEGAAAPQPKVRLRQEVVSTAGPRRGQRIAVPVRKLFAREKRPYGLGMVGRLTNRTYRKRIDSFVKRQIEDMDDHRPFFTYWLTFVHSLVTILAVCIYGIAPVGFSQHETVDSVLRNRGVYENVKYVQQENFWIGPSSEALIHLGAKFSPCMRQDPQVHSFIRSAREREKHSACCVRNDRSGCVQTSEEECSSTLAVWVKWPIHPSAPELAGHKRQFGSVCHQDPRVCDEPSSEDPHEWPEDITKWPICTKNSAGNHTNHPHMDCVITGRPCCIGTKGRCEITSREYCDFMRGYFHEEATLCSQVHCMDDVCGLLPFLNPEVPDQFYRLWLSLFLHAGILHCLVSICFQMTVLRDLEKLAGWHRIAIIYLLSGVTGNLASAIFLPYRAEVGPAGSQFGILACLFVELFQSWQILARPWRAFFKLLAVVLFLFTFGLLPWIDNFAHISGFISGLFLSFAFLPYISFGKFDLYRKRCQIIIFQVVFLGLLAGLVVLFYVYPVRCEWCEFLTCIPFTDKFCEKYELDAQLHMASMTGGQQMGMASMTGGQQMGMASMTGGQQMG
# Assay: FACS on cells of the row human iR1 wild type
row,Binder,binding result
1,B1,no binding (tested: 3 µg/ml)
2,B2,no binding (tested: 3 µg/ml)
3,B3,no binding (tested: 3 µg/ml)
4,B4,no binding (tested: 3 µg/ml)
5,B5,no binding (tested: 3 µg/ml)
6,B6,no binding (tested: 3 µg/ml)
7,B7,no binding (tested: 3 µg/ml)
8,B8,no binding (tested: 3 µg/ml)

# Target: T3, hiR2-FL-L539A-T7 (human iRhom2 full length L539A, 3 x T7 tag) (human, UniProt Q6PJF5 1-856)
# T3 sequence: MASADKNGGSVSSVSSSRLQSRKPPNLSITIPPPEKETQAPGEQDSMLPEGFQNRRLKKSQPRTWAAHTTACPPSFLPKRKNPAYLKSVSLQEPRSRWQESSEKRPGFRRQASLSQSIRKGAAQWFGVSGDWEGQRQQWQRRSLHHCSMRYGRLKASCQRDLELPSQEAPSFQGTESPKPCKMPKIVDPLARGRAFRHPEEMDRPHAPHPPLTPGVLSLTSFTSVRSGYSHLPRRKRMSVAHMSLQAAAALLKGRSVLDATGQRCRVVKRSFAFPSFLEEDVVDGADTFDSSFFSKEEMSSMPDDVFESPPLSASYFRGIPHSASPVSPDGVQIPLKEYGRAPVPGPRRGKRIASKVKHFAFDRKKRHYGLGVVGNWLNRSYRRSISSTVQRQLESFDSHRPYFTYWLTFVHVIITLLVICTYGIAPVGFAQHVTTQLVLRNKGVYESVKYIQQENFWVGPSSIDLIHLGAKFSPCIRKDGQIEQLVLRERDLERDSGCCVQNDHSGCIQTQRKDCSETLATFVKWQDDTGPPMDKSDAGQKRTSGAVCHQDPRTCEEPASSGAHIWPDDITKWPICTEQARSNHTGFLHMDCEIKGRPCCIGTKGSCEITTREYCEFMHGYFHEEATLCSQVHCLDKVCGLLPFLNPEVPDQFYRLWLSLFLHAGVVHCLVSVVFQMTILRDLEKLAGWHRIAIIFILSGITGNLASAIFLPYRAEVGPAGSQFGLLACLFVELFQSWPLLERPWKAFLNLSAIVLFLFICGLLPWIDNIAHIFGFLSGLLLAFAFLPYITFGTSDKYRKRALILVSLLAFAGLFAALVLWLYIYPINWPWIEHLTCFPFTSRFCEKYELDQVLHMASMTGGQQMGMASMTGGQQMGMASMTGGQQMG
# Assay: FACS on cells of the row L539A
row,Binder,binding result
1,B9,no binding (tested: 3 µg/ml)
2,B3,no binding (tested: 3 µg/ml)
3,B4,no binding (tested: 3 µg/ml)
4,B5,no binding (tested: 3 µg/ml)
5,B6,no binding (tested: 3 µg/ml)
6,B7,no binding (tested: 3 µg/ml)
7,B8,no binding (tested: 3 µg/ml)

# Target: T2, hiR1-FL-WT-T7 (human iRhom1 full length …)
# Assay: FACS on cells of the row human iR1 wild type, vs human iR2 wild type = 100%
row,Binder,grade of loss of binding vs wild type
1,B1,3 grade (3 => 95% loss of binding vs wild type)
2,B2,3 grade (3 => 95% loss of binding vs wild type)
3,B9,3 grade (3 => 95% loss of binding vs wild type)
4,B3,3 grade (3 => 95% loss of binding vs wild type)
5,B4,3 grade (3 => 95% loss of binding vs wild type)
6,B5,3 grade (3 => 95% loss of binding vs wild type)
7,B6,3 grade (3 => 95% loss of binding vs wild type)
8,B7,3 grade (3 => 95% loss of binding vs wild type)
9,B8,3 grade (3 => 95% loss of binding vs wild type)
